Reference: publication PMC3847722 (Toxins, 2013)

Target: T1, botulinum neurotoxin serotype B (Clostridium botulinum., UniProt P10844)
T1 construct: source: bought: Metabiologics Inc
Test: BLI; […], dissociation in PBS 1800 s; 1:1 model, […]
Settings: both partners purified

B1: MCS6-27 (antibody, V domains shown)
VH: EVQLEQSGPGLVKPSQSLSLTCTVTGYSITNDYAWNWIRQFPGNKLEWMGYINYSGTTSYNPSLKSRISITRDTSKNQFFLQFNSVTTEDTATYYCARSPLAYWGQGTLVTVSA
VL: DIVLTQTPASLSVSVGETVTITCRASENIYSHLAWYQQKQGKSPQLLVYTATNLADGVPSRFSGRGSGTQYSLKINSLQSEDFGIYFCQHFWGTPWTFGGGTKLEIK
notes: also called mAb MCS6-27; mAb6-27
  Kd: 0.086 nM
